The values that follow come from US6884600 (MEDICAL RESEARCH COUNCIL LONDON, dated 2005).

In assay [1] the target is T1, myosin from chicken gizzard, dephosphorylated form (chicken, UniProt P10587 2-1979; P02612 2-172; P02607 2-151).
T1 construct: mature; Native protein pelleted by centrifugation; 1 µM in terms of heavy chains; also called myosin dimer
The assay can be described thus: co-sedimentation with myosin.

In assay [2] the target is T1, myosin from chicken gizzard, …. The assay can be described thus: co-sedimentation with myosin, immunoblot. Here is the method: (§1) (A); PP1_M, $M110$-(M1-S477) and GST-$M110$-(M377-K976), each at 30 nM were incubated for 15 min at 0° C. with 1 μM myosin and centrifuged. The supernatants (S), resuspended pellets (P) and the suspension before centrifugation (T, total) were electrophoresed on 12% SDS/polyacrylamide gels, transferred to nitrocellulose and immunoblotted with antibodies raised against the PP1_M holoenzyme. No protein was pelleted in the absence of myosin (not shown). The positions of the marker proteins myosin heavy chain (200 kDa), glycogen phosphorylase (97 kDa), bovine serum albumin (66 kDa), ovalbumin (43 kDa), carbonic anhydrase (29 kDa) and soybean trypsin inhibitor (20 kDa) are indicated. […] A small amount of $M110$-(R714-I1004) pelleted in the absence of myosin. […] No other protein was pelleted in the absence of myosin.
Myosin binding assays. Myosin (0.5 mg/ml, 1 µM in terms of myosin heavy chains) in 10 mM Hepes pH 7.5, 50 mM KCl, 5 mM MgCl2, 0.1% (by vol) 2-mercaptoethanol, was mixed with PP1_M, M$21$ subunit, or fragments of the M$110$ and M$21$ subunits, at the concentrations indicated in figure legends. After incubation for 15 min at 0° C., the solutions were centrifuged for 2 min at 13,000×g, the supernatants removed, and the pellets washed twice in 10 mM Hepes pH 7.5, 50 mM KCl, 5 mM MgCl2, 0.1% (by vol) 2-mercaptoethanol before resuspension in 50 mM Tris-HCl pH 7.5, 0.1 mM EGTA, 0.03% (by mass) Brij 35, 0.6 M NaCl, 0.1% (by vol) 2-mercaptoethanol. Aliquots of the supernatant, the resuspended pellet and the suspension before centrifugation were either assayed for myosin P-light chain phosphatase activity or denatured in SDS and analysed by SDS/polyacrylamide gel electrophoresis.
Background: A western blot detects proteins with antibodies after separation by electrophoresis.

For assay [3] the target is unchanged. The assay can be described thus: summary of the co-sedimentation experiments. Here is the method: as §1
(§2) Myosin binding assays. Myosin (0.5 mg/ml, 1 µM in terms of myosin heavy chains) in 10 mM Hepes pH 7.5, 50 mM KCl, 5 mM MgCl2, 0.1% (by vol) 2-mercaptoethanol, was mixed with PP1_M, M$21$ subunit, or fragments of the M$110$ and M$21$ subunits, at the concentrations indicated in figure legends. […] Aliquots of the supernatant, the resuspended pellet and the suspension before centrifugation were either assayed for myosin P-light chain phosphatase activity or denatured in SDS and analysed by SDS/polyacrylamide gel electrophoresis.

The target of assay [4] is T2, β isoform of PP1c released from rabbit skeletal muscle PP1G (rabbit, UniProt P62143 2-327). The assay can be described thus: cell-based or functional assay.
Assay [5] concerns the target PP1GL, glycogen-associated form of PP1 in rat hepatic glycogen-protein particles (rat). The assay can be described thus: cell-based or functional assay.
The target in assay [6] is T2, β isoform of PP1c released from rabbit …. The assay can be described thus: phosphatase assays and changed crystal form of PP1c.
For assay [7], the target named is T1, myosin from chicken gizzard, …. Kind of assay: co-sedimentation, 30 nM with 1 µM myosin, immunoblot. Here is the method:
as §1, §2

Assay [8] concerns the target PP1M, myosin-associated form of PP1 from chicken gizzard (chicken, UniProt P62207 2-327). The assay can be described thus: cell-based or functional assay.

T1 sequence (P10587 2-1979, chain 1 of 3): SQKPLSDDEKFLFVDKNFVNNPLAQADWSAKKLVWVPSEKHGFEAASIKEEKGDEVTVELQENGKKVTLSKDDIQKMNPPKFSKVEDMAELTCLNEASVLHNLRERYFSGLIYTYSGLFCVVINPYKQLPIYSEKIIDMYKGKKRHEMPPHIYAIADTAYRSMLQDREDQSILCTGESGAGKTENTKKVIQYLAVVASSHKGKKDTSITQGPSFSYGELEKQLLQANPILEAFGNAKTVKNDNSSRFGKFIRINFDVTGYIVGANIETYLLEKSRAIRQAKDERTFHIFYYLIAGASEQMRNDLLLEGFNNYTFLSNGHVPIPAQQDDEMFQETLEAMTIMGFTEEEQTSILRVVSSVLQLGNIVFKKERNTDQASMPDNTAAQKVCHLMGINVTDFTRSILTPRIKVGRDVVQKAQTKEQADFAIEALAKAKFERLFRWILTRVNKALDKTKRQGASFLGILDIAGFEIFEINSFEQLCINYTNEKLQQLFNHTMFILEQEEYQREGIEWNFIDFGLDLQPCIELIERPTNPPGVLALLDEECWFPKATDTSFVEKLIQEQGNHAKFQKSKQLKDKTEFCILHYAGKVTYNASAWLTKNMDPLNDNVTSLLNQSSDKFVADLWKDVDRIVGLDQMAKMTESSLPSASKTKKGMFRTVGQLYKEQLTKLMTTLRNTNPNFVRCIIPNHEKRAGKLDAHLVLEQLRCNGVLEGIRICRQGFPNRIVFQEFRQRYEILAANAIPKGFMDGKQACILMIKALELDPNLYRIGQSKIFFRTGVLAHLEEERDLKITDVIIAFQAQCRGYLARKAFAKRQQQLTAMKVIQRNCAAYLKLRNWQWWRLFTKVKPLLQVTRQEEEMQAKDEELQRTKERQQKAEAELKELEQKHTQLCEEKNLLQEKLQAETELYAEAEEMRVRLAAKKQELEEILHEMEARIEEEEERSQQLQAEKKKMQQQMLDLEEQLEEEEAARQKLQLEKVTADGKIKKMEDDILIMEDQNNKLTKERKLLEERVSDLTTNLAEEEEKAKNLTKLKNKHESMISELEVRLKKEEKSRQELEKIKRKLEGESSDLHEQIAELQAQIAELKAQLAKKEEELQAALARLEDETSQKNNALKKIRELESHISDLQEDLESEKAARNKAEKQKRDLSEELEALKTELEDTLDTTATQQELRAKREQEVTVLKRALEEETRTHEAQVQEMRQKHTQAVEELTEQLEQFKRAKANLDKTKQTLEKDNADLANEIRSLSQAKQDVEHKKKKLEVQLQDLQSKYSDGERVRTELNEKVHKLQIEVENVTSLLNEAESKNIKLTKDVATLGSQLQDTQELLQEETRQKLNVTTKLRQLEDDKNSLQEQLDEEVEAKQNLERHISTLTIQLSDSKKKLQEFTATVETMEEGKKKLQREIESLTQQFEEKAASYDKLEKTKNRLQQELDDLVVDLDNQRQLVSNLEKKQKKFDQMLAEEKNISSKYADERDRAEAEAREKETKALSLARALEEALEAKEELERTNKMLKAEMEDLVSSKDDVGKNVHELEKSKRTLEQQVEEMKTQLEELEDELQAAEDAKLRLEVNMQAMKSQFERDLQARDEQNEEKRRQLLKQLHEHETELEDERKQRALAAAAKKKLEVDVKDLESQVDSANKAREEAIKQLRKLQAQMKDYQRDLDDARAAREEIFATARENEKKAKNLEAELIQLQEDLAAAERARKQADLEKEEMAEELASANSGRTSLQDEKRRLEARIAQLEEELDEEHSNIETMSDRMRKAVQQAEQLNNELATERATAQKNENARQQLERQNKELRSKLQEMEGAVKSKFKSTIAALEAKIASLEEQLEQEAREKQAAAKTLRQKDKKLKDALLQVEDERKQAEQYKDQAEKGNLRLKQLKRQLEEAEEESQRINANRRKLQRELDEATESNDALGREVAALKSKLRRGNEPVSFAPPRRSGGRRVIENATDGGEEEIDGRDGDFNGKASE
T1 sequence (P02612 2-172, chain 2 of 3): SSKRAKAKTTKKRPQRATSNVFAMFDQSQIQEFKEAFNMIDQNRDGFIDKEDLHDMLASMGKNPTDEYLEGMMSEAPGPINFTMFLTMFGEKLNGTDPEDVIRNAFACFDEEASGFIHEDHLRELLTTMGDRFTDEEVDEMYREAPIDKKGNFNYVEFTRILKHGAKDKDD
T1 sequence (P02607 2-151, chain 3 of 3): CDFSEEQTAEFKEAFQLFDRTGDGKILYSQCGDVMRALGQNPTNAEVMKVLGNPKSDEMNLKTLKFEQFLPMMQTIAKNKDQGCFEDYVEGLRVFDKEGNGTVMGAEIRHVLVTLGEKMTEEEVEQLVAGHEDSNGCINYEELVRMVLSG
T2 sequence (P62143 2-327): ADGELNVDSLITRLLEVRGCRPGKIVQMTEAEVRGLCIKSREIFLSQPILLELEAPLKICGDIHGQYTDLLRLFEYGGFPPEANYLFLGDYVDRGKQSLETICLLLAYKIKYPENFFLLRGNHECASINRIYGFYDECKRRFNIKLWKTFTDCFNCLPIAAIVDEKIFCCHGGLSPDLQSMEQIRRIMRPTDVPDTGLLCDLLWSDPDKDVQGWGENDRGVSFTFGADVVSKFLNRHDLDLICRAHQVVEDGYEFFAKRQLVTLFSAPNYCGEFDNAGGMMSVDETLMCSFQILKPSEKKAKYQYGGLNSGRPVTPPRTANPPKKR
Chain of PP1M, myosin-associated form of PP1 from chicken gizzard (P62207 2-327): as the sequence (P62143 2-327) above

B1: GST-M110-(M1-E309), GST tag not cleaved (other)
chain: MKMADAKQKRNEQLKRWIGSETDLEPPVVKRQKTKVKFDDGAVFLAACSSGDTDEVLKLLHRGADINYANVDGLTALHQACIDDNVDMVKFLVENGANINQPDNEGWIPLHAAASCGYLDIAEFLIGQGAHVGAVNSEGDTPLDIAEEEAMEELLQNEVNRQGVDIEAARKEEERIMLRDARQWLNSGHISDVRHAKSGGTALHVAAAKGYTEVLKLLIQAGYDVNIKDYDGWTPLHAAAHWGKEEACRILVDNLCDMETVNKVGQTAFDVADEDILGYLEELQKKQNLLHSEKRDKKSPLIESTANMEA
notes: not shown: glutathione-S-transferase of vector pGEX-KG with the vector linker (thrombin site)
For B1, the binding result in assay [1] is given as “no binding”.

B2: M110-(M1-S477), released from GST with thrombin (other)
chain: GSPGMKMADAKQKRNEQLKRWIGSETDLEPPVVKRQKTKVKFDDGAVFLAACSSGDTDEVLKLLHRGADINYANVDGLTALHQACIDDNVDMVKFLVENGANINQPDNEGWIPLHAAASCGYLDIAEFLIGQGAHVGAVNSEGDTPLDIAEEEAMEELLQNEVNRQGVDIEAARKEEERIMLRDARQWLNSGHISDVRHAKSGGTALHVAAAKGYTEVLKLLIQAGYDVNIKDYDGWTPLHAAAHWGKEEACRILVDNLCDMETVNKVGQTAFDVADEDILGYLEELQKKQNLLHSEKRDKKSPLIESTANMENNQPQKTFKNKETLIIEPEKNASRIESLEQEKADEEEEGKKDESSCSSEEDEEDDSESEAETDKTKPMASVTNAHTASTQAAPAAVTTPTLSSNQGTPTSPVKKFPTSTTKISPKEEERKDESPASWRLGLRKTGSYGALAEITASKEAQKEKDTAGVIRSASSPRLSSAANSISSLIHRD
Take B2: the binding result in assay [2] is “no binding (tested: 30 nM with 1 µM myosin)”.

B3: M110-(R714-I1004), C-terminal 291 residues of the chicken gizzard M110 subunit (other)
chain: RSTRTREQENEEKEKEEKEKQDKEKQEEKKESETKDDDYRQRYSRTVEEPYHRYRPTSTSTSTSSTSSLSTSTSSLSSSSQLNRPNSLIGITSAYSRSGTKESEREGGKKEEEKEEDKSQPKSIRERRRPREKRRSTGVSFWTQDSDENEQEHQSDSEEGTNKKETQSDSLSRYDTGSLSVSSGDRYDSAQGRSGSQSYLEDRKPYCSRLEKEDSTDFKKLYEQILAENEKLKAQLHDTNMELTDLKLQLEKTTQRQERFADRSLLEMEKRVSGKSQYLLGGKKSSRKKDI
notes: Expressed from pT7-7
Take B3: in assay [3], the binding result is “binds”.

Regarding MKMADAKQKRNEQLKRWIGSETDLEPPVVKRQKTKVKF [M110-(M1-F38) synthetic peptide], in assay [4], the “concentration for half maximal activation relative to M110-(M1-E309)” value is at least 100 fold and the “maximal activation of the myosin light chain phosphatase activity of PP1c” value turned out to be 3 fold. Also, the “phosphorylase phosphatase activity of PP1GL at 10 µM peptide” value in assay [5] was determined as 3.5 fold.

B4: M110-(M1-A150), released from GST with thrombin (other)
chain: GSPGMKMADAKQKRNEQLKRWIGSETDLEPPVVKRQKTKVKFDDGAVFLAACSSGDTDEVLKLLHRGADINYANVDGLTALHQACIDDNVDMVKFLVENGANINQPDNEGWIPLHAAASCGYLDIAEFLIGQGAHVGAVNSEGDTPLDIAEEEA
On to B4, for which the “concentration needed to modify the specificity of PP1, relative to M110-(M1-E309)” value in assay [4] worked out at 10 fold.

Take GRRVSFADNFGFNLVSVK (also called peptide 63-80 of GM) [GM-(G63-K80) synthetic peptide]: the binding result in assay [6] is reported as “binds”.

For MKMADAKQKRNEQLKRWIGSETDLEPPVVKRQKTK [M110[M1-K35] synthetic peptide], the “effectiveness at activating the myosin light chain phosphatase activity of PP1c relative to M110[1-38]” value in assay [4] is at least 10000 fold.

B5: GST-M21 (other, not shown: a dimerising Fc or GST; small tags and cut ends)
chain: MSSLFTRSKEYTRSRKSQSDSPPSSPSPIAKTLRHERLSRLEAATTPATSDSYSDRASSRSSAYSRRENRLAALSSRAEEESNRDYKKLYESALSENQKLKSKLQEAQLELADIKSKLEKAAQQKHEKTSDRSSMLEMEKREKRALERKLSEMEEEMKILTELKSDNQRLKDENGALIRVISKLSK
notes: also called undegraded GST-M21 (47 kDa)
In the case of B5, the binding result in assay [2] is listed as “binds”.

B6: GM-(G63-N75) synthetic peptide (peptide)
peptide: GRRVSFADNFGFN
notes: 13-residue peptide co-crystallised with PP1γ1; also called GM[63-75]; GM peptide
As for B6, the binding result in assay [6] is on record as “binds”.

B7: GST-M110-(M377-K976), undegraded (other)
chain: MASVTNAHTASTQAAPAAVTTPTLSSNQGTPTSPVKKFPTSTTKISPKEEERKDESPASWRLGLRKTGSYGALAEITASKEAQKEKDTAGVIRSASSPRLSSSLDNKEKEKDNKGTRLAYVAPTIPRRLGSTSDIEEKENRESSNLRTSSSYTRRKWEDDLKKNSSINEGSTYHRSTSNRLWAEDSTEKEKDSAPTAATILVAPTVVSAAASSTTALTTTTAGTLSSTSEVRERRRSYLTPVRDEESESQRKARSRQARQSRRSTQGVTLTDLQEAEKTIGRSRSTRTREQENEEKDKEEKEKQDKEKQEEKKESEVSREDEYKQKYSRTYDETYARYRPVSTSSSSTPSSSSLSTLGSSLYASSQLNRPNSLVGITSAYSRGLTKDNEREGEKKEEEKEGEDKSQPKSIRERRRPREKRRSTGVSFWTQDSDENEQERQSDTEDGSSKRDTQTDSVSRYDSSSTSSSDRYDSLLGRSASYSYLEERKPYGSRLEKDDSTDFKKLYEQILAENEKLKAQLHDTNMELTDLKLQLEKATQRQERFADRSLLEMEKRERRALERRISEMEEELKMLPDLKADNQRLKDENGALIRVISKLSK
notes: also called C-terminal 600 residues of the M110 subunit from rat aorta; not shown: glutathione-S-transferase of vector pGEX-KG with the vector linker
Regarding B7, in assay [7], the binding result is “binds”.

As for GRRVSFADNFGFNLVSVKEFDTWELPSVSTT [rabbit GM-(G63-T93) synthetic peptide], the “phosphorylase phosphatase activity of PP1M at 10 µM peptide” value in assay [8] is about 7 fold. Besides, the “phosphorylase phosphatase activity of PP1GL” value in assay [5] is 6 fold.

B8: GST-M110-(M1-S477) (other)
chain: MKMADAKQKRNEQLKRWIGSETDLEPPVVKRQKTKVKFDDGAVFLAACSSGDTDEVLKLLHRGADINYANVDGLTALHQACIDDNVDMVKFLVENGANINQPDNEGWIPLHAAASCGYLDIAEFLIGQGAHVGAVNSEGDTPLDIAEEEAMEELLQNEVNRQGVDIEAARKEEERIMLRDARQWLNSGHISDVRHAKSGGTALHVAAAKGYTEVLKLLIQAGYDVNIKDYDGWTPLHAAAHWGKEEACRILVDNLCDMETVNKVGQTAFDVADEDILGYLEELQKKQNLLHSEKRDKKSPLIESTANMENNQPQKTFKNKETLIIEPEKNASRIESLEQEKADEEEEGKKDESSCSSEEDEEDDSESEAETDKTKPMASVTNAHTASTQAAPAAVTTPTLSSNQGTPTSPVKKFPTSTTKISPKEEERKDESPASWRLGLRKTGSYGALAEITASKEAQKEKDTAGVIRSASSPRLSSAANSISSLIHRD
notes: as for B1
In the case of B8, the binding result in assay [1] is recorded as “no binding”.

B9: M110-(K933-I1004), C-terminal 72 residues of the chicken gizzard M110 subunit, released from MBP with Factor Xa (other)
chain: KLYEQILAENEKLKAQLHDTNMELTDLKLQLEKTTQRQERFADRSLLEMEKRVSGKSQYLLGGKKSSRKKDI
notes: also called 8.5 kDa M110-(K933-I1004) fragment
Consider B9, for which the binding result in assay [2] is given as “no binding (tested: 100 nM with 1 µM myosin)”.
